Biological target: HA-PLK1 (human, UniProt P53350 1-603)
Test: cell-based or functional assay

Chain of HA-PLK1 (P53350 whole entry): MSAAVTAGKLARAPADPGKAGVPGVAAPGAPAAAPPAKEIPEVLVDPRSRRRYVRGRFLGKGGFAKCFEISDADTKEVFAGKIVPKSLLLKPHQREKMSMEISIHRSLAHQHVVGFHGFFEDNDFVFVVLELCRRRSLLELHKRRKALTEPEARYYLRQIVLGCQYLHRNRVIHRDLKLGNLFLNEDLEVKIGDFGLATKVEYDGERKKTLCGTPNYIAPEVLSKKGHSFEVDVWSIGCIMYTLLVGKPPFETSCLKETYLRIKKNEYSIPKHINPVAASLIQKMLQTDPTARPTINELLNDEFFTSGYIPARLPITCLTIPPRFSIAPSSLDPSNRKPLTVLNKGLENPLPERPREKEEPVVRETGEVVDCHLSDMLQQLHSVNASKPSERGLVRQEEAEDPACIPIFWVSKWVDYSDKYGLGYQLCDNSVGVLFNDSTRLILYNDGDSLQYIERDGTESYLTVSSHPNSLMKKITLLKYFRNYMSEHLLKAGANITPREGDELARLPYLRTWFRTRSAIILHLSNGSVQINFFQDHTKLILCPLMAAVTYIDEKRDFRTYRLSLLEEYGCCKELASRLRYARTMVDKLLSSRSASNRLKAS

in vitro PLK1 kinase activity (universal kinase activity kit, purified PLK1 with AMPKα2 and ATP); EC50 of RGCC for activation of PLK1: 19.4 nM
B1: GST-RGCC (natural protein, UniProt Q9H4X1 1-137, looked up)
chain: MKPPAAQGSPAAAAAAAPALDSAAAEDLSDALCEFDAVLADFASPFHERHFHYEEHLERMKRRSSASVSDSSGFSDSESADSLYRNSFSFSDEKLNSPTDSTPALLSATVTPQKAKLGDTKELEAFIADLDKTLASM

From paper PMC10722681, “RGCC-mediated PLK1 activity drives breast cancer lung metastasis by phosphorylating AMPKα2 to activate oxidative phosphorylation and fatty acid oxidation” (Journal of Experimental & Clinical Cancer Research : CR, 2023)
